Measurements: patent US20250320281A1

Legend:
Experiment in all cases: cell-based or functional assay
[1] = biological target: HIV-1 Env of isolate MGRM-AE-006 (subtype AE) (HIV-1)
[2] = biological target: HIV-1 envelope glycoprotein (Env) of isolate MGRM-C-008 (HIV-1)
[3] = biological target: HIV-1 Env of isolate MGRM-AE-003 (subtype AE) (HIV-1)
[4] = biological target: HIV-1 Env of isolate MG RM-D-001 (HIV-1)
[5] = biological target: HIV-1 Env of isolate MGRM-AG-009 (subtype AG) (HIV-1)
[6] = biological target: HIV-1 Env of isolate 92UG031 (HIV-1)
[7] = biological target: HIV-1 Env of isolate QH0692.42 (subtype B) (HIV-1)
[8] = biological target: HIV-1 JRCSF Env (pseudovirus, clade B) (HIV-1) (UniProt P20871)
[9] = biological target: HIV-1 envelope glycoprotein (Env) of isolate MGRM-C-025 (HIV-1)
[10] = biological target: HIV-1 93IN905 Env (pseudovirus, clade C) (HIV-1)
[11] = biological target: HIV-1 Env of isolate MGRM-AG-005 (clade AG), on pseudovirus (HIV-1)
[12] = biological target: HIV-1 Env of isolate APV-17 (HIV-1)
[13] = biological target: HIV-1 92RW020 Env (pseudovirus, clade A) (HIV-1)
[14] = biological target: HIV-1 Env of isolate MGRM-C-005 (subtype C) (HIV-1)
[15] = biological target: HIV-1 Env of isolate MGRM-A-012 (subtype A) (HIV-1)
[16] = biological target: HIV-1 Env of isolate MGRM-AE-004 (subtype AE) (HIV-1)
[17] = biological target: HIV-1 envelope glycoprotein (Env) of isolate MGRM-C-027 (HIV-1)
[18] = biological target: HIV-1 Env of isolate 98CN009 (HIV-1)
[19] = biological target: HIV-1 MGRM-AG-005 Env (pseudovirus) (HIV-1)
[20] = biological target: HIV-1 Env of isolate MG RM-D-013 (HIV-1)
[21] = biological target: HIV-1 Env of pseudovirus MGRM-AE-002 (clade CRF01_AE) (HIV-1)
[22] = biological target: HIV-1 Env of isolate MGRM-Chronic-B-002, clade B, on pseudovirus (HIV-1)
[23] = biological target: HIV-1 Env of isolate MGRM-Chronic-B-004, clade B, on pseudovirus (HIV-1)
[24] = biological target: HIV-1 Env of pseudovirus JRFL (HIV-1)
[25] = biological target: HIV-1 envelope glycoprotein (Env) of isolate MGRM-A-003, clade A (HIV-1)
[26] = biological target: HIV-1 Env of pseudovirus MGRM-AG-011 (clade CRF_AG) (HIV-1)
[27] = biological target: HIV-1 Env of isolate MGRM-D-022 (clade D pseudovirus) (HIV-1)
[28] = biological target: HIV-1 Env of pseudovirus MGRM-G-017 (HIV-1, clade G isolate MGRM-G-017)
[29] = biological target: HIV-1 envelope glycoprotein (Env) of isolate 92RW026, clade A (HIV-1)
[30] = biological target: HIV-1 Env of isolate MGRM-D-016 (clade D pseudovirus) (HIV-1)
[31] = biological target: HIV-1 Env of isolate SC422661.8 (Acute), clade B, on pseudovirus (HIV-1)
[32] = biological target: HIV-1 envelope glycoprotein (Env) of isolate 92RW008, clade A (HIV-1)
[33] = biological target: HIV-1 Env of isolate MGRM-D-021 (clade D pseudovirus) (HIV-1)
[34] = biological target: HIV-1 Env of pseudovirus MGRM-F1-017 (HIV-1)
[35] = biological target: HIV-1 92TH021 envelope glycoprotein (Env) on pseudovirus (HIV-1)
[36] = biological target: HIV-1 Env of isolate MGRM-D-014 (clade D pseudovirus) (HIV-1)
[37] = biological target: HIV-1 CMU02 envelope glycoprotein (Env) on pseudovirus (HIV-1)
[38] = biological target: HIV-1 Env of pseudovirus MGRM-AG-002 (clade CRF_AG) (HIV-1)
[39] = biological target: HIV-1 envelope glycoprotein (Env) of isolate 94UG103, clade A (HIV-1)
[40] = biological target: HIV-1 Env of pseudovirus MGRM-AE-007 (clade CRF01_AE) (HIV-1)

Sequence of 5329_C19 (PGT-136) (antibody) (VH): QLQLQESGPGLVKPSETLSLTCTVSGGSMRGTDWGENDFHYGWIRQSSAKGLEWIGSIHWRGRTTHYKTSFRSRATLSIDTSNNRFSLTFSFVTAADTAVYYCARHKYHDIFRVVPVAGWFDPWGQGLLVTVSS
Sequence of 5329_C19 (PGT-136) (antibody) (VL): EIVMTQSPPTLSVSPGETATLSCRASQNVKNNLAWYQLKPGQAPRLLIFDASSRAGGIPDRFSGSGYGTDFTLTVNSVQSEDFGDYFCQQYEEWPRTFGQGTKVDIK

Substance | IC50 [21] [µg/mL] | IC50 (µg/ml), pseudovirus neutralization [22] [µg/mL] | IC50 (µg/ml), pseudovirus neutralization [23] [µg/mL] | IC50 (µg/ml), pseudovirus neutralization [24] [µg/mL] | IC50 (µg/ml), pseudovirus neutralization [25] [µg/mL] | IC50 [26] [µg/mL] | IC50 (µg/ml), pseudovirus neutralization [27] [µg/mL] | IC50 (µg/ml), pseudovirus neutralization [28] [µg/mL] | IC50 (µg/ml), pseudovirus neutralization [29] [µg/mL] | IC50 (µg/ml), pseudovirus neutralization [30] [µg/mL] | IC50 (µg/ml), pseudovirus neutralization [31] [µg/mL] | IC50 (µg/ml), pseudovirus neutralization [32] [µg/mL] | IC50 (µg/ml), pseudovirus neutralization [33] [µg/mL] | IC50 (µg/ml), pseudovirus neutralization [34] [µg/mL] | IC50, pseudovirus neutralization [35] [µg/mL] | IC50 (µg/ml), pseudovirus neutralization [36] [µg/mL] | IC50, pseudovirus neutralization [37] [µg/mL] | IC50 [38] [µg/mL] | IC50 (µg/ml), pseudovirus neutralization [39] [µg/mL] | IC50 [40] [µg/mL] | also measured
5329_C19 (PGT-136) (antibody) |  |  |  |  |  |  |  |  |  |  |  |  |  |  |  |  |  |  |  |  | IC50 (µg/mL), pseudovirus neutralization [1]: > 50 µg/mL; IC50 (µg/mL), pseudovirus neutralization [2]: > 50 µg/mL; IC50 (µg/mL), pseudovirus neutralization [3]: > 50 µg/mL; IC50 (µg/mL), pseudovirus neutralization [4]: > 50 µg/mL; IC50 (µg/mL), pseudovirus neutralization [5]: > 50 µg/mL; IC50 [6]: > 50 µg/mL; IC50 neutralization [7]: > 50 µg/mL; IC50 neutralization [8]: > 10 µg/mL; IC50 (µg/mL), pseudovirus neutralization [9]: > 50 µg/mL; IC50 neutralization [10]: 0.0135 µg/mL; IC50, pseudovirus neutralization [11]: > 10 µg/mL; neutralization IC50 [12]: > 50 µg/mL; IC50 neutralization [13]: 0.738 µg/mL; IC50 neutralization [14]: > 50 µg/mL; IC50 (µg/mL), pseudovirus neutralization [15]: > 50 µg/mL; IC50 (µg/mL), pseudovirus neutralization [16]: > 50 µg/mL; IC50 (µg/mL), pseudovirus neutralization [17]: > 50 µg/mL; IC50 (µg/mL), pseudovirus neutralization [18]: 0.428 µg/mL; IC50 (neutralizing activity, pseudovirus) [19]: > 10 µg/mL; IC50 (µg/mL), pseudovirus neutralization [20]: > 50 µg/mL
2F5 (antibody) | 0.31 | 1.25 | 2.41 | 3.54 | 7.37 | > 50 | 8.45 | 0.6 | 8.63 | 9.85 | > 50 | 10.4 | > 50 | > 50 | 1.51 | 2.22 | 0.38 | 0.54 | 1.92 | 0.07 | 
2G12 (antibody) | > 50 | > 50 | 8.65 | 1.45 | > 50 | > 50 | > 50 | > 50 | 17.2 | > 50 | 0.84 | 22.5 | 23 | > 50 | > 50 | > 50 | > 50 | 0.54 | 48.1 | > 50 | 
1495_C14 (PGC14) (antibody) | > 50 | > 50 | > 50 | > 50 | > 50 | > 50 | > 50 | > 50 | > 50 | > 50 | > 50 | 37 | > 50 | > 50 | > 50 | 48 | > 50 | > 50 | > 50 | > 50 | 
